Consider two proteins from US7807396.

Data set [1] has as its target amyloid beta peptide Aβ1-40.
For data set [2], the target named is amyloid beta peptide Aβ1-42.
Data set [3] has as its target aggregated amyloid β1-40 pre-coated on 96 well plates (synthetic amyloid plaque, synthaloid).
Data set [4] deals with T1, human β-endorphin1-31, P01189.
T1 chain: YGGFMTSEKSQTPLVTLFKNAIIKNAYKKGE

B1: human neprilysin expressed from a lentiviral construct in primary neuronal cultures of neprilysin deficient mice (protein)
chain: GKSESQMDITDINTPKPKKKQRWTPLEISLSVLVLLLTIIAVTMIALYATYDDGICKSSDCIKSAARLIQNMDATTEPCTDFFKYACGGWLKRNVIPETSSRYGNFDILRDELEVVLKDVLQEPKTEDIVAVQKAKALYRSCINESAIDSRGGEPLLKLLPDIYGWPVATENWEQKYGASWTAEKAIAQLNSKYGKKVLINLFVGTDDKNSVNHVIHIDQPRLGLPSRDYYECTGIYKEACTAYVDFMISVARLIRQEERLPIDENQLALEMNKVMELEKEIANATAKPEDRNDPMLLYNKMTLAQIQNNFSLEINGKPFSWLNFTNEIMSTVNISITNEEDVVVYAPEYLTKLKPILTKYSARDLQNLMSWRFIMDLVSSLSRTYKESRNAFRKALYGTTSETATWRRCANYVNGNMENAVGRLYVEAAFAGESKHVVEDLIAQIREVFIQTLDDLTWMDAETKKRAEEKALAIKERIGYPDDIVSNDNKLNNEYLELNYKEDEYFENIIQNLKFSQSKQLKKLREKVDKDEWISGAAVVNAFYSSGRNQIVFPAGILQPPFFSAQQSNSLNYGGIGMVIGHEITHGFDDNGRNFNKDGDLVDWWTQQSASNFKEQSQCMVYQYGNFSWDLAGGQHLNGINTLGENIADNGGLGQAYRAYQNYIKKNGEEKLLPGLDLNHKQLFFLNFAQVWCGTYRPEYAVNSIKTDVHSPGNFRIIGTLQNSAEFSEAFHCRKNSYMNPEKKCRVW
On to B1, for which, in data set [1], the “125I-Aβ1-40 peptide degradation in primary neuronal cultures” value is on record as “neprilysin expressing neuronal cell cultures virtually destroyed all Aβ peptide in comparison to the controls”.

B2: recombinant rat insulysin with an N-terminal His6 affinity tag, expressed in baculovirus-infected Sf9 cells (protein)
chain: MNNPAIQRIEDHIVKSPEDKREYRGLELANGIKVLLISDPTTDKSSAALDVHIGSLSDPPNIPGLSHFCEHMLFLGTKKYPKENEYSQFLSEHAGSSNAFTSGEHTNYYFDVSHEHLEGALDRFAQFFLCPLFDASCKDREVNAVDSEHEKNVMNDAWRLFQLEKATGNPKHPFSKFGTGNKYTLETRPNQEGIDVREELLKFHSTYYSSNLMAICVLGRESLDDLTNLVVKLFSEVENKNVPLPEFPEHPFQEEHLKQLYKIVPIKDIRNLYVTFPIPDLQQYYKSNPGHYLGHLIGHEGPGSLLSELKSKGWVNTLVGGQKEGARGFMFFIINVDLTEEGLLHVEDIILHMFQYIQKLRAEGPQEWVFQECKDLNAVAFRFKDKERPRGYTSKIAGKLHYYPLNGVLTAEYLLEEFRPDLIDMVLDKLRPENVRVAIVSKSFEGKTDRTEQWYGTQYKQEAIPEDVIQKWQNADLNGKFKLPTKNEFIPTNFEILALEKDATPYPALIKDTAMSKLWFKQDDKFFLPKACLNFEFFSPFAYVDPLHCNMAYLYLELLKDSLNEYAYAAELAGLSYDLQNTIYGMYLSVKGYNDKQPILLKKITEKMATFEIDKKRFEIIKEAYMRSLNNFRAEQPHQHAMYYLRLLMTEVAWTKDELKEALDDVTLPRLKAFIPQLLSRLHIEALLHGNITKQAALGVMQMVEDTLIEHAHTKPLLPSQLVRYREVQLPDRGWFVYQRRNEVHNNCGIEIYYQTDMQSTSENMFLELFCQIISEPCFNTLRTKEQLGYIVFSGPRRANGIQGLRFIIQSEKPPHYLESRVEAFLITMEKAIEDMTEEAFQKHIQALAIRRLDKPKKLSAECAKYWGEIISQQYNYDRDNIEVAYLKTLSKDDIIKFYKEMLAVDAPRRHKVSVHVLAREMDSCPVVGEFPSQNDINLSEAPPLPQPEVIHNMTEFKRGLPLFPLVKPHINFMAAKL
For the protein B2, the “sparing of neurotoxic effects on primary rat cortical neurons (25 µM Aβ1-42, 48 hrs)” value in data set [2] is recorded as 500 ng of insulysin was effective in sparing the neurotoxic effects of Aβ1-42. Further, the “release of radioactivity from 125I-Aβ1-40 first deposited onto synthetic amyloid” value in data set [3] is recorded as “After a 24 hr incubation with 5 µg of insulysin no radioactivity was released”. Also, in data set [1], the “prevention of deposition of radiolabeled Aβ1-40 onto synthaloid, 60 minutes preincubation with insulysin (FIG. 9B)” value is 50 ng insulysin is able to prevent the deposition of radiolabeled Aβ1-40 onto the synthetic amyloid; the “prevention of deposition of radiolabeled Aβ1-40 onto synthaloid, insulysin added at zero time (FIG. 9A)” value is 50 ng of insulysin is able to prevent the deposition of radiolabeled Aβ1-40; the “rate of cleavage of 25 µM Aβ1-40” value is listed as 1.2 µmols/min/mg enzyme; the “sparing of neurotoxic effects on primary rat cortical neurons (30 µM Aβ1-40, 48 hrs)” value is on record as “as little as 50 ng of insulysin was effective in sparing the neurotoxic effects of Aβ1-40”. For the same protein, the “specific activity of the recombinant enzyme (disappearance of β-endorphin by HPLC)” value in data set [4] was 2.6 µmols/min/mg.
